± gives the uncertainty stated by the source.
B1: Steroid hormone receptor ERR2, residues 100 to 176; numbered along this chain, O95718 (parent)
chain: KRLCLVCGDIASGYHYGVASCEACKAFFKRTIQGNIEYSCPATNECEITKRRRKSCQACRFMKCLKVGMLKEGVRLD

Variants of: B1
Assay: abundance fitness (aPCA) (normalised: wild type 0, dead -1); higher = more abundant; growth selection in yeast, the domain comes from the species named
Conditions: Homo sapiens

Variant	abundance fitness
KRLCLVCGDIASGYHYGVASCEACKAFFKRTIQGNIEYSCPATNECEITKRRRKSCQACRFMKCLKVGMLKEGVRLH [D77H]	0.082 ± 0.12
KRLCLVCGDIASGYHYGVASCEACKAFFKRTIQGNIEYSCPATNECEITKRRRKSCQACRFMKCLKVGMLKEGVRLP [D77P]	0.171 ± 0.1
KRLCLVCGDIASGYHYGVASCEACKAFFKRTIQGNIEYSCPATNECEITKRRRKSCQACRFMKCLKVGMLKEGVRLV [D77V]	-0.111 ± 0.068
KRLCLVCGDIASGYHYGVASCEACKAFFKRTIQGNIEYSCPATNECEITKRRRKSCQACRFMKCLKVGMLKEGVRLW [D77W]	-0.287 ± 0.12
KRLCLVCGDIASGYHYGVASCEACKAFFKRTIQGNIEYSCPATNECEITKRRRKSCQACRFMKCLKVGMLKEGVRLG [D77G]	-0.194 ± 0.064
KRLCLVCGDIASGYHYGVASCEACKAFFKRTIQGNIEYSCPATNECEITKRRRKSCQACRFMKCLKVGMLKEGVRLL [D77L]	-0.168 ± 0.088
KRLCLVCGDIASGYHYGVASCEACKAFFKRTIQGNIEYSCPATNECEITKRRRKSCQACRFMKCLKVGMLKEGVRLS [D77S]	-0.059 ± 0.077
KRLCLVCGDIASGYHYGVASCEACKAFFKRTIQGNIEYSCPATNECEITKRRRKSCQACRFMKCLKVGMLKEGVRLQ [D77Q]	0.26 ± 0.13
KRLCLVCGDIASGYHYGVASCEACKAFFKRTIQGNIEYSCPATNECEITKRRRKSCQACRFMKCLKVGMLKEGVRLA [D77A]	-0.131 ± 0.073
KRLCLVCGDIASGYHYGVASCEACKAFFKRTIQGNIEYSCPATNECEITKRRRKSCQACRFMKCLKVGMLKEGVRLN [D77N]	-0.166 ± 0.11
KRLCLVCGDIASGYHYGVASCEACKAFFKRTIQGNIEYSCPATNECEITKRRRKSCQACRFMKCLKVGMLKEGVRLY [D77Y]	-0.29 ± 0.2
KRLCLVCGDIASGYHYGVASCEACKAFFKRTIQGNIEYSCPATNECEITKRRRKSCQACRFMKCLKVGMLKEGVRLM [D77M]	-0.35 ± 0.14
KRLCLVCGDIASGYHYGVASCEACKAFFKRTIQGNIEYSCPATNECEITKRRRKSCQACRFMKCLKVGMLKEGVRLI [D77I]	-0.572 ± 0.19
KRLCLVCGDIASGYHYGVASCEACKAFFKRTIQGNIEYSCPATNECEITKRRRKSCQACRFMKCLKVGMLKEGVRLR [D77R]	-0.11 ± 0.058
KRLCLVCGDIASGYHYGVASCEACKAFFKRTIQGNIEYSCPATNECEITKRRRKSCQACRFMKCLKVGMLKEGVRLC [D77C]	-0.348 ± 0.18
KRLCLVCGDIASGYHYGVASCEACKAFFKRTIQGNIEYSCPATNECEITKRRRKSCQACRFMKCLKVGMLKEGVRLF [D77F]	-0.363 ± 0.22
KRLCLVCGDIASGYHYGVASCEACKAFFKRTIQGNIEYSCPATNECEITKRRRKSCQACRFMKCLKVGMLKEGVRLE [D77E]	-0.096 ± 0.082
KRLCLVCGDIASGYHYGVASCEACKAFFKRTIQGNIEYSCPATNECEITKRRRKSCQACRFMKCLKVGMLKEGVRLT [D77T]	-0.04 ± 0.095

Variant	abundance fitness
KRLCLVCGDIASGYHYGVASCEACKAFFKRTIQGNIEYSCPATNECEITKRRRKSCQACRFMKCLKVGMLKEGVRAD [L76A]	0.124 ± 0.057
KRLCLVCGDIASGYHYGVASCEACKAFFKRTIQGNIEYSCPATNECEITKRRRKSCQACRFMKCLKVGMLKEGVRPD [L76P]	-0.079 ± 0.08
KRLCLVCGDIASGYHYGVASCEACKAFFKRTIQGNIEYSCPATNECEITKRRRKSCQACRFMKCLKVGMLKEGVRKD [L76K]	-0.028 ± 0.07
KRLCLVCGDIASGYHYGVASCEACKAFFKRTIQGNIEYSCPATNECEITKRRRKSCQACRFMKCLKVGMLKEGVRYD [L76Y]	-0.001 ± 0.12
KRLCLVCGDIASGYHYGVASCEACKAFFKRTIQGNIEYSCPATNECEITKRRRKSCQACRFMKCLKVGMLKEGVRCD [L76C]	-0.099 ± 0.11
KRLCLVCGDIASGYHYGVASCEACKAFFKRTIQGNIEYSCPATNECEITKRRRKSCQACRFMKCLKVGMLKEGVRTD [L76T]	-0.024 ± 0.083
KRLCLVCGDIASGYHYGVASCEACKAFFKRTIQGNIEYSCPATNECEITKRRRKSCQACRFMKCLKVGMLKEGVRID [L76I]	-0.037 ± 0.15
KRLCLVCGDIASGYHYGVASCEACKAFFKRTIQGNIEYSCPATNECEITKRRRKSCQACRFMKCLKVGMLKEGVRWD [L76W]	-0.095 ± 0.053
KRLCLVCGDIASGYHYGVASCEACKAFFKRTIQGNIEYSCPATNECEITKRRRKSCQACRFMKCLKVGMLKEGVRED [L76E]	0.146 ± 0.053
KRLCLVCGDIASGYHYGVASCEACKAFFKRTIQGNIEYSCPATNECEITKRRRKSCQACRFMKCLKVGMLKEGVRSD [L76S]	-0.07 ± 0.062
KRLCLVCGDIASGYHYGVASCEACKAFFKRTIQGNIEYSCPATNECEITKRRRKSCQACRFMKCLKVGMLKEGVRMD [L76M]	-0.001 ± 0.067
KRLCLVCGDIASGYHYGVASCEACKAFFKRTIQGNIEYSCPATNECEITKRRRKSCQACRFMKCLKVGMLKEGVRQD [L76Q]	-0.007 ± 0.061
KRLCLVCGDIASGYHYGVASCEACKAFFKRTIQGNIEYSCPATNECEITKRRRKSCQACRFMKCLKVGMLKEGVRDD [L76D]	0.08 ± 0.09
KRLCLVCGDIASGYHYGVASCEACKAFFKRTIQGNIEYSCPATNECEITKRRRKSCQACRFMKCLKVGMLKEGVRND [L76N]	0.056 ± 0.12
KRLCLVCGDIASGYHYGVASCEACKAFFKRTIQGNIEYSCPATNECEITKRRRKSCQACRFMKCLKVGMLKEGVRGD [L76G]	0.055 ± 0.043
KRLCLVCGDIASGYHYGVASCEACKAFFKRTIQGNIEYSCPATNECEITKRRRKSCQACRFMKCLKVGMLKEGVRVD [L76V]	0.058 ± 0.045
KRLCLVCGDIASGYHYGVASCEACKAFFKRTIQGNIEYSCPATNECEITKRRRKSCQACRFMKCLKVGMLKEGVTLD [R75T]	0.062 ± 0.059

From the Human Domainome abundance scans (Beltran et al. 2025)
